The source of these data is the RNAGym collection of RNA variant scans (doi:10.7554/elife.80360).

B1: CPEB3 Ribozyme (parent)
chain: GGGGGCCACAGCAGAAGCGUUCACGUCGCGGCCCCUGUCAGAUUCUGGUGAAUCUGCGAAUUCUGCUGU

The variants in the series derive from B1. Description: self-cleavage, relative activity (ratio to wild type); higher = more cleavage; co-transcriptional.
In the case of GGGGGCCACAGCAGAAGCGUUCAGGUCGCGGCCCCUGUCAGAUUCUGGUGAAUCCGCGAAUUCUGCUGU [C24G U55C], the self-cleavage was 0.292.
For GGGGGCCACAGCAGAAGCGUUCAGGUCGCGGCCCCUGUCAGAUUCUGGUGAAUCUGCUAAUUCUGCUGU [C24G G58U], the self-cleavage came out at 0.387.
With GGGGGCCACAGCAGAAGCGUUCAAGUCGCGGCCCCUGUCAGAUUCUGGUGAAUCUGCGAAUUCGGCUGU [C24A U64G], the self-cleavage was 0.508.
For GGGGGCCACAGCAGAAGCGUUCAAGUCGCGGCCCCUGUCAGAUUCUGGUGAAUCUGCGAAUUCCGCUGU [C24A U64C] the value was 0.471; for GGGGGCCACAGCAGAAGCGUUCAGGUCGUGGCCCCUGUCAGAUUCUGGUGAAUCUGCGAAUUCUGCUGU [C24G C29U], 0.0935; for GGGGGCCACAGCAGAAGCGUUCAGGUCGGGGCCCCUGUCAGAUUCUGGUGAAUCUGCGAAUUCUGCUGU [C24G C29G], 0.194.
Take GGGGGCCACAGCAGAAGCGUUCAUGUCGCGGCCCAUGUCAGAUUCUGGUGAAUCUGCGAAUUCUGCUGU [C24U C35A]: the self-cleavage came to 0.17.
For GGGGGCCACAGCAGAAGCGUUCAUGUCGCGGCCCGUGUCAGAUUCUGGUGAAUCUGCGAAUUCUGCUGU [C24U C35G] the value was 0.202.
Consider GGGGGCCACAGCAGAAGCGUUCAGGUCGCGGCCCCUGUCAGAUUCUGGUGAAUCUCCGAAUUCUGCUGU [C24G G56C], for which the self-cleavage is 0.245.
Turning to GGGGGCCACAGCAGAAGCGUUCAAGUCGCGGCCCCUGUCAGAUUCUGGUGAAUCUGCGAAUUCUGCUCU [C24A G68C], the self-cleavage worked out at 0.825.
For GGGGGCCACAGCAGAAGCGUUCAAGCCGCGGCCCCUGUCAGAUUCUGGUGAAUCUGCGAAUUCUGCUGU [C24A U26C] the value was 0.507; for GGGGGCCACAGCAGAAGCGUUCAUGUCGCGGCCCCUGUCAGAUUUUGGUGAAUCUGCGAAUUCUGCUGU [C24U C45U], 0.829.
As for GGGGGCCACAGCAGAAGCGUUCAGGUCGCGGCCCCUGUCAGAUUCUGGUGAAUCUGCGAAUUCUGUUGU [C24G C66U], the self-cleavage was 0.502.
Regarding GGGGGCCACAGCAGAAGCGUUCAGGUCGCGGCCCCUGUCAGAUUCUGGUGAAUCUGCGAAUCCUGCUGU [C24G U62C], the self-cleavage is 0.148.
With GGGGGCCACAGCAGAAGCGUUCAGGUCGCGGACCCUGUCAGAUUCUGGUGAAUCUGCGAAUUCUGCUGU [C24G C32A], the self-cleavage came to 0.224.
Take GGGGGCCACAGCAGAAGCGUUCAAGUCGCGGCCCCUGUCAGAUUCUGGUGAAUCUGCGAAAUCUGCUGU [C24A U61A]: the self-cleavage was 0.452.
For the variant GGGGGCCACAGCAGAAGCGUUCAAGUCGCGGCCCCUGUCAGAUUCUGGUGAAUCUGCGAAGUCUGCUGU [C24A U61G], the self-cleavage came out at 0.347.
As for GGGGGCCACAGCAGAAGCGUUCAGGACGCGGCCCCUGUCAGAUUCUGGUGAAUCUGCGAAUUCUGCUGU [C24G U26A], the self-cleavage was found to be 0.206.
Consider GGGGGCCACAGCAGAAGCGUUCAGGGCGCGGCCCCUGUCAGAUUCUGGUGAAUCUGCGAAUUCUGCUGU [C24G U26G], for which the self-cleavage worked out at 0.344.
In the case of GGGGGCCACAGCAGAAGCGUUCAGGUCGCGGCCCCUGUCAGAUUCUGAUGAAUCUGCGAAUUCUGCUGU [C24G G48A], the self-cleavage worked out at 0.554.
With GGGGGCCACAGCAGAAGCGUUCAGGUCGCGGCCCCUGUCAGAUUCUGCUGAAUCUGCGAAUUCUGCUGU [C24G G48C] the figure was 0.449; with GGGGGCCACAGCAGAAGCGUUCAGGUCGCGGCCCCUGUCAGAUUCUGGUGAAUUUGCGAAUUCUGCUGU [C24G C54U], 0.602.
On to GGGGGCCACAGCAGAAGCGUUCAUGUCGCGGCCCCUGUCAGAUUCUGGUGAAUCUGCGUAUUCUGCUGU [C24U A59U], for which the self-cleavage was found to be 0.414.
As to GGGGGCCACAGCAGAAGCGUUCAAGUCGCGGCCCCUGUCAGAUUCUGGCGAAUCUGCGAAUUCUGCUGU [C24A U49C], the self-cleavage was 0.74.
For GGGGGCCACAGCAGAAGCGUUCAAGUCGCGGCCCCUGUCAGAUUCUGGGGAAUCUGCGAAUUCUGCUGU [C24A U49G] the value was 0.686.
As to GGGGGCCACAGCAGAAGCGUUCAUGUCGCGGCCCCUGUCAGAUUCUGGUGAAUCUGCGAGUUCUGCUGU [C24U A60G], the self-cleavage is 0.464.
For GGGGGCCACAGCAGAAGCGUUCAUGUCGCGGCCCCUGUCAGAUUCUGGUGAAUCUGCGAUUUCUGCUGU [C24U A60U] the value was 0.299.
In the case of GGGGGCCACAGCAGAAGCGUUCAGGUCUCGGCCCCUGUCAGAUUCUGGUGAAUCUGCGAAUUCUGCUGU [C24G G28U], the self-cleavage is 0.13.
For GGGGGCCACAGCAGAAGCGUUCAGGUCCCGGCCCCUGUCAGAUUCUGGUGAAUCUGCGAAUUCUGCUGU [C24G G28C] the value was 0.224.
For GGGGGCCACAGCAGAAGCGUUCAGGUCGCGGCCCCUGUCUGAUUCUGGUGAAUCUGCGAAUUCUGCUGU [C24G A40U] the value was 0.14; for GGGGGCCACAGCAGAAGCGUUCAUGUAGCGGCCCCUGUCAGAUUCUGGUGAAUCUGCGAAUUCUGCUGU [C24U C27A], 0.229; for GGGGGCCACAGCAGAAGCGUUCAAGUCGCGGCCCCCGUCAGAUUCUGGUGAAUCUGCGAAUUCUGCUGU [C24A U36C], 0.27.
Regarding GGGGGCCACAGCAGAAGCGUUCAGGUCGCGGCGCCUGUCAGAUUCUGGUGAAUCUGCGAAUUCUGCUGU [C24G C33G], the self-cleavage turned out to be 0.201.
With GGGGGCCACAGCAGAAGCGUUCAGGUCGCGGCACCUGUCAGAUUCUGGUGAAUCUGCGAAUUCUGCUGU [C24G C33A] the figure was 0.206; with GGGGGCCACAGCAGAAGCGUUCAGGUCGCGGCCCCUGUCAAAUUCUGGUGAAUCUGCGAAUUCUGCUGU [C24G G41A], 0.247.
In the case of GGGGGCCACAGCAGAAGCGUUCAGGUCGCGGCCCCUGUCAUAUUCUGGUGAAUCUGCGAAUUCUGCUGU [C24G G41U], the self-cleavage was 0.207.
For GGGGGCCACAGCAGAAGCGUUCAGGUCGCGGCCCAUGUCAGAUUCUGGUGAAUCUGCGAAUUCUGCUGU [C24G C35A], the self-cleavage is 0.167.
With GGGGGCCACAGCAGAAGCGUUCAGGUCGCGGCCCCUGUCAGAGUCUGGUGAAUCUGCGAAUUCUGCUGU [C24G U43G], the self-cleavage was 0.249.
With GGGGGCCACAGCAGAAGCGUUCAGGUCGCGGCCCCUGUCAGAUUCUGGUGAAUCUGCGAAUUCUGCUCU [C24G G68C] the figure was 0.578.
